Test results: patent publication US20060051842A1 (AMRAD OPERATIONS, published 2006)

Tests used:
[1] = target: T1, LIF receptor and gp130 expressed by parental M1 cells (mouse; murine, UniProt P42703 44-1092; Q00560 23-917); experiment: binding of 125I-LIF to parental M1 cells
T1 construct: whole, on cells; Untransfected cells

[2] = target: T2, Nr1 (murine IL-11 receptor α-chain) expressed in Ba/F3 cells (murine, UniProt Q64385 24-432); experiment: binding of 125I-LIF to transfected Ba/F3 cells
T2 construct: also called Ba/F3 cells expressing Nr1; Ba/F3 Nr1
T2 sequence: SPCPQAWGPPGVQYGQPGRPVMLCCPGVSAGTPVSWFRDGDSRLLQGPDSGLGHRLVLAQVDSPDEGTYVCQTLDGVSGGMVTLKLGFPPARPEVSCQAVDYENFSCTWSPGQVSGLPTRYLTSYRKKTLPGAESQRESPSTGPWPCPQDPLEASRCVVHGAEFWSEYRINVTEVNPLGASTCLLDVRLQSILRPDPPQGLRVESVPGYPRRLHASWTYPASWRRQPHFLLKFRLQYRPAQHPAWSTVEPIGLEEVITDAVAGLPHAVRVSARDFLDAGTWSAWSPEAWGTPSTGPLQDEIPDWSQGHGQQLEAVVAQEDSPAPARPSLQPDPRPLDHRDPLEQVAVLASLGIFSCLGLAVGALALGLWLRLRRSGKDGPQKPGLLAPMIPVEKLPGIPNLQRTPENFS

[3] = target: T3, Nr1, gp130 and the LIF receptor co-expressed in Ba/F3 cells (murine; mouse; human, UniProt Q00560 23-917; P42702 45-1097); experiment: competition with 125I-IL-11 on Ba/F3 cells expressing Nr1, gp130 and the LIF receptor
T3 construct: whole, on cells; also called Ba/F3 Nr1/gp130/LIF receptor
T3 sequence (P42702 45-1097, one chain of several): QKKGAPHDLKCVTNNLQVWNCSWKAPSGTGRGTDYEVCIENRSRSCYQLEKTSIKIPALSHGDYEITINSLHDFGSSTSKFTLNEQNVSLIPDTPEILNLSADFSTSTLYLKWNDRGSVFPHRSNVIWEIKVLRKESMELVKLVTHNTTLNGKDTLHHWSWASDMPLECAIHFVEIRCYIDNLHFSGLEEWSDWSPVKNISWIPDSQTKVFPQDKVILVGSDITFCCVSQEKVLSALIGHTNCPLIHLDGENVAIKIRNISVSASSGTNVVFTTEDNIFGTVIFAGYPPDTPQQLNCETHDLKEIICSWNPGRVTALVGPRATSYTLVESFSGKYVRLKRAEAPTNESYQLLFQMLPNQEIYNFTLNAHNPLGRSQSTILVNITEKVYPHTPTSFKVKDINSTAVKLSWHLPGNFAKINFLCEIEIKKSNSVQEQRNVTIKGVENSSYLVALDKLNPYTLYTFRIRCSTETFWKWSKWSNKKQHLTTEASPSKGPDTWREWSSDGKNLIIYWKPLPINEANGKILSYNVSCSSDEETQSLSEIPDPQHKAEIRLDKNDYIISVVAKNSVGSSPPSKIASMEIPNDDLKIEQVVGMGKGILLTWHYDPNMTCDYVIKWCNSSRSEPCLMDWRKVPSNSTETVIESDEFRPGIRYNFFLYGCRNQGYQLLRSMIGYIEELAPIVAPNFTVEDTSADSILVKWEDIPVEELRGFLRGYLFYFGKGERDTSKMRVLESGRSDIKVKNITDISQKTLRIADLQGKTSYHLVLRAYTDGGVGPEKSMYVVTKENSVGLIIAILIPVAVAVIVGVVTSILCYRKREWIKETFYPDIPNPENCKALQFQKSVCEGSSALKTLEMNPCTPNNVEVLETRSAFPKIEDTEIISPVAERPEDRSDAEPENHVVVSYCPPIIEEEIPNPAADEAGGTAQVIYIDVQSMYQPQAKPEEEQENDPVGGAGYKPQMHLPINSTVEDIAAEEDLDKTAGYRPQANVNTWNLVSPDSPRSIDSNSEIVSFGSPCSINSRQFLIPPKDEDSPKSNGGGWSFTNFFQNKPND
Protocol: (§1) After 18 hours incubation on ice, bound and free IL-11 were separated by centrifugation through foetal calf serum. Bound and free ¹²⁵I-IL-11 were quantitated in a γ-counter and the amount of binding was expressed as a percentage of that observed in the absence of competitor.

[4] = target: T1, LIF receptor and gp130 expressed by …; experiment: binding of 125I-OSM to parental M1 cells
[5] = target: T2, Nr1 (murine IL-11 receptor α-chain) …; experiment: binding of 125I-OSM to transfected Ba/F3 cells
[6] = target: T4, Nr1 and gp130 co-expressed in Ba/F3 cells (murine; mouse, UniProt Q00560 23-917); experiment: competition with 125I-IL-11 on Ba/F3 cells expressing Nr1 and gp130; competitor of labelled IL-11
T4 construct: whole, on cells; also called Ba/F3 Nr1/gp130; Ba/F3 cells expressing the murine IL-11rα and murine gp130
T4 sequence 1: T2 sequence
T4 sequence 2: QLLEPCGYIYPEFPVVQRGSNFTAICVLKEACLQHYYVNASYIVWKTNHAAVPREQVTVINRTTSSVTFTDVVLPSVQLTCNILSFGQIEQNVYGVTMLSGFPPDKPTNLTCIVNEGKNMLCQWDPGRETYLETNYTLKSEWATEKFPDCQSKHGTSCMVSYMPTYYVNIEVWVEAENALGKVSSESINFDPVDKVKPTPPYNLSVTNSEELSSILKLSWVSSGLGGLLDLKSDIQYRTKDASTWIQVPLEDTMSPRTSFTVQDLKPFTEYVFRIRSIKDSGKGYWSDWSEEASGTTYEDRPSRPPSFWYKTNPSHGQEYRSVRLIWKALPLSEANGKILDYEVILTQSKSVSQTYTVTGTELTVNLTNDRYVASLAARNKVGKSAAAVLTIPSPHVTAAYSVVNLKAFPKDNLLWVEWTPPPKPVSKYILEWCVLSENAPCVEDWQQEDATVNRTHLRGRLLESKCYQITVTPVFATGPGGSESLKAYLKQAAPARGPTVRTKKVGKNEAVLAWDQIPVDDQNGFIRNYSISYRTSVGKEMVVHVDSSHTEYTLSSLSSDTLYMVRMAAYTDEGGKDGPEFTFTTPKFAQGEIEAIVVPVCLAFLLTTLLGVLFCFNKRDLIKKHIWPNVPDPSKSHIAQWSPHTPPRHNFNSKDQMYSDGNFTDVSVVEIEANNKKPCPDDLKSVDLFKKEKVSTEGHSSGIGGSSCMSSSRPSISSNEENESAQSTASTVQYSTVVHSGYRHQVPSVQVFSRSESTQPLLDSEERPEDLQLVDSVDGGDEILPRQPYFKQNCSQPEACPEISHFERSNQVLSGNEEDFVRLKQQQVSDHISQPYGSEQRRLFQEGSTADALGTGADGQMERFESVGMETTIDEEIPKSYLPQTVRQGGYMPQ
Protocol: as §1

[7] = target: T2, Nr1 (murine IL-11 receptor α-chain) …; experiment: Scatchard analysis of 125I-IL-11 saturation binding to Ba/F3 cells expressing Nr1
Text: FIGS. 4A-4D are graphical representations of scatchard analyses of saturation isotherms of IL-11 binding to various cell lines; (4A) parental Ba/F3 cells (●), Ba/F3 cells expressing Nr1 (◯), Ba/F3 cells expressing Nr1 and the LIF receptor (▪), (4B) Ba/F3 cells expressing the LIF receptor and gp130 (▪), Ba/F3 cells expressing Nr1 and gp130 (●), Ba/F3 cells expressing the Nr1, LIF receptor and gp130 (◯), (4C) parental M1 cells (▪), M1 cells expressing Nr1 (◯), and (4D) 3T3-L1 cells (●) were incubated with various concentrations of labelled IL-11 in the presence of absence of a 10-100-fold excess of unlabelled IL-11. After 18 hours incubation on ice, bound and free IL-11 were separated by centrifugation through foetal calf serum. Bound and free ¹²⁵I-IL-11 was quantitated in a γ-counter and the data was depicted as a Scatchard transformation. In each case data were normalised for cell number and shown as binding to 10⁶ cells.

[8] = target: T1, LIF receptor and gp130 expressed by …; experiment: binding of 125I-labelled human IL-11 to cells

T1 sequence (P42703 44-1092, one chain of several): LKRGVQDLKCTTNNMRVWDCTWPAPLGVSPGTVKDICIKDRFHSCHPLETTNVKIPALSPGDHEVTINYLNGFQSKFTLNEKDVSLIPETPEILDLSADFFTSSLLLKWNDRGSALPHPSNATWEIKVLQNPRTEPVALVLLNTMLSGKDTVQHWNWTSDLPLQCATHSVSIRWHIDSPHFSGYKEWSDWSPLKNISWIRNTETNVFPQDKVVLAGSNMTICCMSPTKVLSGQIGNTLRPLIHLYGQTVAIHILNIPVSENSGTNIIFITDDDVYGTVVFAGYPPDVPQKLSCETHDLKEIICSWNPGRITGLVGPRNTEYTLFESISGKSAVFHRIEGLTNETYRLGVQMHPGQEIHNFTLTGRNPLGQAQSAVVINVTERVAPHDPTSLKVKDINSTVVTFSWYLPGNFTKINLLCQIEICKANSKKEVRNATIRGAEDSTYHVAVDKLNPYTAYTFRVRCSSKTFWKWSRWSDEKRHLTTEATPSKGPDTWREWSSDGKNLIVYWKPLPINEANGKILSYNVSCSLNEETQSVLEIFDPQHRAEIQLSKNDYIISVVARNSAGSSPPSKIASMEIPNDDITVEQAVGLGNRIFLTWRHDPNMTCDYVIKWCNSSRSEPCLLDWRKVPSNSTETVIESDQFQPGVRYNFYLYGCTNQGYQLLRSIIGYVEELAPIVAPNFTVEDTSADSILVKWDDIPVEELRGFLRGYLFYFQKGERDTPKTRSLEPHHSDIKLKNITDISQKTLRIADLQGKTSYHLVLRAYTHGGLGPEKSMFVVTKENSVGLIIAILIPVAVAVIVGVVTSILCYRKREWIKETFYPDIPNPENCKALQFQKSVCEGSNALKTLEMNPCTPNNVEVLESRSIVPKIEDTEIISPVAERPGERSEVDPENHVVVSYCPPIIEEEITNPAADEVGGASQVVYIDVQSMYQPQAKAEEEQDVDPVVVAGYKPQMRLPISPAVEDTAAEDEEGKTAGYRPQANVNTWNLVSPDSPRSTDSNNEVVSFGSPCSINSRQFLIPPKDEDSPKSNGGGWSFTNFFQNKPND

B1: human LIF (produced using the pGEX system) (ligand)
chain: not shown
modifications: 125I-labelled where used as labelled ligand
- binding result [1]: binds
- binding result [2]: no binding
- binding result [3]: binds

B2: human OSM (produced using the pGEX system) (ligand, UniProt P13725 26-221, looked up)
chain: AAIGSCSKEYRVLLGQLQKQTDLMQDTSRLLDPYIRIQGLDVPKLREHCRERPGAFPSEETLRGLGRRGFLQTLNATLGCVLHRLADLEQRLPKAQDLERSGLNIEDLEKLQMARPNILGLRNNIYCMAQLLDNSDTAEPTKAGRGASQPPTPTPASDAFQRKLEGCRFLHGYHRFMHSVGRVFSKWGESPNRSRR
modifications: 125I-labelled where used as labelled ligand
- binding result [4]: binds
- binding result [5]: no binding
- binding result [3]: binds
- binding result [6]: binds

B3: IL-11 (purchased from PeproTech; used in Examples 7, 8, 12 and 13) (ligand)
chain: PGPPPGPPRVSPDPRAELDSTVLLTRSLLADTRQLAAQLRDKFPADGDHNLDSLPTLAMSAGALGALQLPGVLTRLRADLLSYLRHVQWLRRAGGSSLKTLEPELGTLQARLDRLLRRLQLLMSRLALPQPPPDPPAPPLAPPSSAWGGIRAAHAILGGLHLTLDWAVRGLLLLKTRL
modifications: The tracer form (125I-IL-11) was radio-iodinated with monoiodinated Bolton-Hunter reagent on amino groups. The positions are not stated and the letters are unchanged.
notes: Species ambiguous: 'Murine' may apply to IL-3 only; also called labelled IL-11
- Kd [7]: ~0.01 nM

B4: N-terminal flag human IL-11 (expressed in COS-M6 cells, used in ligand binding studies) (ligand)
chain: DYKDDDDKPGPPPGPPRVSPDPRAELDSTVLLTRSLLADTRQLAAQLRDKFPADGDHNLDSLPTLAMSAGALGALQLPGVLTRLRADLLSYLRHVQWLRRAGGSSLKTLEPELGTLQARLDRLLRRLQLLMSRLALPQPPPDPPAPPLAPPSSAWGGIRAAHAILGGLHLTLDWAVRGLLLLKTRL
modifications: radio-iodinated (125I) with Bolton-Hunter reagent
notes: mature; also called radio-labelled human IL-11
- binding result [8]: no binding
